T1: ANGPTL2 (R&D systems, 9795-AN) (UniProt Q9UKU9 23-493, limits assumed)
T1 construct: also called ANGTPL2
T1 sequence (looked up): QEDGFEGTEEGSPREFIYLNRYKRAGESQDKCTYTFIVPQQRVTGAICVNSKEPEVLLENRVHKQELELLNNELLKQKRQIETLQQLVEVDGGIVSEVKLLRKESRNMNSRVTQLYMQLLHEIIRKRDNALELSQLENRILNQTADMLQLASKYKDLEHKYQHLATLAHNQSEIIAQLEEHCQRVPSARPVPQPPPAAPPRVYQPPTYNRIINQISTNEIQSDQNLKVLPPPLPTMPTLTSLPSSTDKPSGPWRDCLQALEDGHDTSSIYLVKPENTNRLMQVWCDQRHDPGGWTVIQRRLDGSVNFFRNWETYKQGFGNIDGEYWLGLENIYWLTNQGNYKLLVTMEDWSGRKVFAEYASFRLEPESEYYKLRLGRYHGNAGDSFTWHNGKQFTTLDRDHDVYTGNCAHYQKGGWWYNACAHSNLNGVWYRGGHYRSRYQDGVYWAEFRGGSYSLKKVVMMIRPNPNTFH

B1: ANGPTL7 (R&D systems, 914-AN) (ligand, UniProt O43827 27-346, looked up)
chain: QKLSKHKTPAQPQLKAANCCEEVKELKAQVANLSSLLSELNKKQERDWVSVVMQVMELESNSKRMESRLTDAESKYSEMNNQIDIMQLQAAQTVTQTSADAIYDCSSLYQKNYRISGVYKLPPDDFLGSPELEVFCDMETSGGGWTIIQRRKSGLVSFYRDWKQYKQGFGSIRGDFWLGNEHIHRLSRQPTRLRVEMEDWEGNLRYAEYSHFVLGNELNSYRLFLGNYTGNVGNDALQYHNNTAFSTKDKDNDNCLDKCAQLRKGGYWYNCCTDSNLNGVYYRLGEHNKHLDGITWYGWHGSTYSLKRVEMKIRPEDFKP
B2: human LILRB1 (receptor, UniProt Q8NHL6 24-458, looked up)
chain: GHLPKPTLWAEPGSVITQGSPVTLRCQGGQETQEYRLYREKKTALWITRIPQELVKKGQFPIPSITWEHAGRYRCYYGSDTAGRSESSDPLELVVTGAYIKPTLSAQPSPVVNSGGNVILQCDSQVAFDGFSLCKEGEDEHPQCLNSQPHARGSSRAIFSVGPVSPSRRWWYRCYAYDSNSPYEWSLPSDLLELLVLGVSKKPSLSVQPGPIVAPEETLTLQCGSDAGYNRFVLYKDGERDFLQLAGAQPQAGLSQANFTLGPVSRSYGGQYRCYGAHNLSSEWSAPSDPLDILIAGQFYDRVSLSVQPGPTVASGENVTLLCQSQGWMQTFLLTKEGAADDPWRLRSTYQSQKYQAEFPMGPVTSAHAGTYRCYGSQSSKPYLLTHPSDPLELVVSGPSGGPSSPTTGPTSTSGPEDQPLTPTGSDPQSGLGRH
B3: LILRB2 (c-terminally biotinylated, BPS Bioscience #100335) (receptor, human, UniProt Q8N423 22-460, looked up)
chain: QTGTIPKPTLWAEPDSVITQGSPVTLSCQGSLEAQEYRLYREKKSASWITRIRPELVKNGQFHIPSITWEHTGRYGCQYYSRARWSELSDPLVLVMTGAYPKPTLSAQPSPVVTSGGRVTLQCESQVAFGGFILCKEGEDEHPQCLNSQPHARGSSRAIFSVGPVSPNRRWSHRCYGYDLNSPYVWSSPSDLLELLVPGVSKKPSLSVQPGPVMAPGESLTLQCVSDVGYDRFVLYKEGERDLRQLPGRQPQAGLSQANFTLGPVSRSYGGQYRCYGAHNLSSECSAPSDPLDILITGQIRGTPFISVQPGPTVASGENVTLLCQSWRQFHTFLLTKAGAADAPLRLRSIHEYPKYQAEFPMSPVTSAHAGTYRCYGSLNSDPYLLSHPSEPLELVVSGPSMGSSPPPTGPISTPGPEDQPLTPTGSDPQSGLGRHLGV
modifications: C-terminal biotin
notes: Bought biotinylated protein; also called human LILRB2; biotinylated LILRB2

The target in assay [1] is B3. The experiment in a line: BLI, biotinylated LILRB2 sensors, ANGPTL7 titrated with or without prior incubation of the sensor with iosH2. A general note: BLI is a label-free optical method that tracks binding on a fibre tip over time.
For assay [2], the target named is T2, HLA-B57(A46E/V97R).β2m (HLA-B57 A46E/V97R IgG4 fusion protein associated with β2m) (human; homo sapiens).
T2 construct: Complex secreted from CHO cells co-transfected with the fusion protein and β2m; also called iosH2; IosH2
The experiment in a line: BLI.

Assay [3] has as its target T1, ANGPTL2 (R&D systems, 9795-AN). In words: BLI, biotinylated LILRB2 sensors, ANGPTL2 titrated with or without prior incubation of the sensor with iosH2.

As to B1, in assay [1], the binding result is listed as “binds”.

On to B2, for which the binding result in assay [2] is recorded as “binds”.

On to B3, for which the binding result in assay [3] was “binds”.

(Values after patent publication US20240366718A1 (IMMUNOS THERAPEUTICS, published 2024).)
